Literature values in patent US7547701B2, “Haloalkyl containing compounds as cysteine protease inhibitors” (Virobay, Inc., priority 2003, dated 2009).

Conditions: in clinical trials

**Q.** With “OKT3: murine monoclonal antibody directed towards CD-3 domain of activated T-cells” as the substance, how does the “patients administered OKT3 that produce antibodies versus the therapy” value read?
**A.** Its value is 20-40%.
